T1: OsNAC2 (Oryza sativa L. (rice), UniProt Q7XUV6 1-343)
T1 sequence: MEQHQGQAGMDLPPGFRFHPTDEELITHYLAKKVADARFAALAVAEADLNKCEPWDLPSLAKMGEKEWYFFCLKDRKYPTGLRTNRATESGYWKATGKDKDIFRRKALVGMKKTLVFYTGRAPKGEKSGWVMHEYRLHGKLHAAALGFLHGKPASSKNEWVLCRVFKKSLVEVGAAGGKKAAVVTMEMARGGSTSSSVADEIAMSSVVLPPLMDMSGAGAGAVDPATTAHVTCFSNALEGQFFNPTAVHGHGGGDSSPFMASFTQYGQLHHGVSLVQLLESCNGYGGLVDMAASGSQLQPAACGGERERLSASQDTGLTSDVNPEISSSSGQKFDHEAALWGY

B1: unlabelled 3x CGGCCACGCA competitor (dsDNA)
DNA 1: CGGCCACGCACGGCCACGCACGGCCACGCA
DNA 2: TGCGTGGCCGTGCGTGGCCGTGCGTGGCCG
B2: OsCKX4 promoter-derived 3x CGGCCACGCA probe (dsDNA)
DNA 1: B1 DNA 1
DNA 2: B1 DNA 2

How the values were obtained:
[1] = target: T1, OsNAC2; assay: competition EMSA; unlabelled probe weakened binding of FAM probe N1; 50 mM Tris-HCl pH 8.0, 100 mM KCl, 2.5 mM MgCl2, 0.2 mM DTT, 2 ug salmon sperm DNA, 10% glycerol, 20 uL, 25 C 20 min; probe printed as 200 nmol; 10% PAGE, 0.5x; settings: protein: recombinant; tags: pET-28a vector tag (BamHI/XhoI); chain copies: 2; blunt
[2] = target: T1, OsNAC2; assay: EMSA; increasing OsNAC2; 2.5 mM MgCl2; salmon sperm DNA; 50 mM Tris-HCl pH 8.0, 100 mM KCl, 2.5 mM MgCl2, 0.2 mM DTT, 2 ug salmon sperm DNA, 10% glycerol, 20 uL, 25 C 20 min; probe printed as 200 nmol; 10% PAGE, 0.5x; settings: protein: recombinant; tags: pET-28a vector tag (BamHI/XhoI); chain copies: 2; label: FAM; blunt

Binder | binding result [1] | binding result [2]
B1 | binds | 
B2 |  | binds

Reference: PMC6953191, “OsNAC2 integrates auxin and cytokinin pathways to modulate rice root development”
